Laboratory results published in patent publication US20110262929A1 (FORERUNNER PHARMA RESEARCH, published 2011).

T1: C-terminal V5 tagged mouse HS6ST2 (mHS6ST2_ctV5), expressed in CHO DG44 cells (mouse, UniProt Q80UW0 148-612)
T1 construct: also called mHS6ST2_ctV5_CHO; mouse HS6ST2 transcript variant 2
T1 sequence: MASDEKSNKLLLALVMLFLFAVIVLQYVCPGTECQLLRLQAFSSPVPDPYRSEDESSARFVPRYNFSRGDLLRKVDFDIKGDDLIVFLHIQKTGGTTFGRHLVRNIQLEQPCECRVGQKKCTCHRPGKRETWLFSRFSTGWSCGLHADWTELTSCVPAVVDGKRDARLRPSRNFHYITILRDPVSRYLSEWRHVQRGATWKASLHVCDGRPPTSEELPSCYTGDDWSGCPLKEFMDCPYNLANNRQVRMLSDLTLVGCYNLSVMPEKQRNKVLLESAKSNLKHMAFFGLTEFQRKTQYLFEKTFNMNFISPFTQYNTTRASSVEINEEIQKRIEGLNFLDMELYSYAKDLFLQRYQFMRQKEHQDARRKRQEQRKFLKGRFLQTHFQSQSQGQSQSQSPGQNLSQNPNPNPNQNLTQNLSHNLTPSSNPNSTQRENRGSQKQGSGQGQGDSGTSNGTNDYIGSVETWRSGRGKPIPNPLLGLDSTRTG

T2: C-terminal V5 tagged HS6ST2_N-long (HS6ST2_N-long_ctV5), expressed in CHO DG44 cells (human, UniProt Q96MM7 1-605)
T2 construct: On cells in flow cytometry; also called Q96MM7-1
T2 sequence: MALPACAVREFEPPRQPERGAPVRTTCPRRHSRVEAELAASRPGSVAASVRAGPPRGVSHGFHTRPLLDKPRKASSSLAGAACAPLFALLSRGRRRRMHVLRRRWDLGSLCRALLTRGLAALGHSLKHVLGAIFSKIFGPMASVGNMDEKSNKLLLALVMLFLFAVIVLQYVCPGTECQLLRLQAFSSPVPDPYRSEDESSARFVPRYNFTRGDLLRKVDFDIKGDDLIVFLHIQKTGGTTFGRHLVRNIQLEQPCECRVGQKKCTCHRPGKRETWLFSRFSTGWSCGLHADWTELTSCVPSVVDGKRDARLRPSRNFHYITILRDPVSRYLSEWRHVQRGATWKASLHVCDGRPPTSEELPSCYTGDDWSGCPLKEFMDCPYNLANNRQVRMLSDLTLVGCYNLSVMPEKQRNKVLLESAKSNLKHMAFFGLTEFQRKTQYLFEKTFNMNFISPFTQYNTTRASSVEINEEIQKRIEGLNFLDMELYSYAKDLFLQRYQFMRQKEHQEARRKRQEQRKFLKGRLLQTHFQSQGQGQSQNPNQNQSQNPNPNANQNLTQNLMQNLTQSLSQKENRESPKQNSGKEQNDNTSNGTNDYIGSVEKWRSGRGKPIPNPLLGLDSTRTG

T3: GST_HS6ST2_N (human, UniProt Q96MM7 170-321)
T3 construct: Expressed in E. coli BL21 (DE3); whole cell lysate blotted after SDS-PAGE; also called GST fusion of amino acids 24-175 of HS6ST2_N-short; not shown: N-terminal glutathione S-transferase (GST) of vector pGEX-6P-1, with the vector's linker
T3 sequence: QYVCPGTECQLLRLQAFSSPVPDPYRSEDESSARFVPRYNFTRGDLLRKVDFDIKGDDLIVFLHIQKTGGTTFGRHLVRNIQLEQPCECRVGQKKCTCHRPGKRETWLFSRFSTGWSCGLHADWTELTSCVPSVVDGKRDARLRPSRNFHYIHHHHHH

T4: C-terminal V5 tagged HS6ST2_N-short (HS6ST2_N-short_ctV5), expressed in CHO DG44 cells (human, UniProt Q96MM7 147-605)
T4 construct: also called Q96MM7-2
T4 sequence: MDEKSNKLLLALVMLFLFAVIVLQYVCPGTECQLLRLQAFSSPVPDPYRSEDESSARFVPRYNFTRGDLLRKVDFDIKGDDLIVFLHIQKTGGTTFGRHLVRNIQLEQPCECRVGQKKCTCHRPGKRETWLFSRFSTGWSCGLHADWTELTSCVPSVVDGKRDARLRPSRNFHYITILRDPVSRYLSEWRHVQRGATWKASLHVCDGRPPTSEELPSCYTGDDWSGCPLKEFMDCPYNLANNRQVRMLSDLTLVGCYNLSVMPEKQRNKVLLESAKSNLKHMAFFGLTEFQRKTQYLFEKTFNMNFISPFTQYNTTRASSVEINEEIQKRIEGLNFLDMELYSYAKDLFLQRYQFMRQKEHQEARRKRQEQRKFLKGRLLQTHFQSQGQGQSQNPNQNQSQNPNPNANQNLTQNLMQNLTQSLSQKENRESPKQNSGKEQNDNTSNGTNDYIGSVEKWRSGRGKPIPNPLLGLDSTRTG

T5: GST_HS6ST2_C2 (human, UniProt Q96MM7 525-605)
T5 construct: Expressed in E. coli BL21 (DE3); whole cell lysate blotted after SDS-PAGE; also called GST fusion of amino acids 379-459 of HS6ST2_N-short; not shown: N-terminal glutathione S-transferase (GST) of vector pGEX-6P-1, with the vector's linker
T5 sequence: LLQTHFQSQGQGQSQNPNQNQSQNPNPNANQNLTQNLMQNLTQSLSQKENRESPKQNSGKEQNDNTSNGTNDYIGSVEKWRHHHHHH


What was measured:
[1] = target: T1, C-terminal V5 tagged mouse HS6ST2 …; test: flow cytometry on mHS6ST2_ctV5_CHO cells, antibody 2 µg/mL
Method: (§1) Binding of the anti-HS6ST2 antibodies prepared in Example 2 to mHS6ST2 was evaluated by flow cytometry. The cells used were mHS6ST2_ctV5_CHO, HS6ST2_N-short_ctV5_CHO as a positive control, and the CHO DG44 cell line as a negative control.
(§2) Each anti-HS6ST2 antibody or mouse IgG1 (mIgG1, BD Biosciences Pharmingen) as a negative control was added to a final concentration of 2 μg/mL into 96-well U-bottom plates (Becton Dickinson) containing 5×10⁴ cells suspended in PBS (FACS buffer) supplemented with 0.5% bovine serum albumin and 0.1% NaN₃. After reaction on ice for 1 hour, the cells were washed with FACS buffer. Then, an FITC-labeled anti-mouse antibody (Goat F(ab′)₂ Fragment Anti-mouse IgG (H+L)-FITC, Beckman Coulter) was added as a secondary antibody, and the mixture was reacted on ice for 1 hour. The cells were washed with FACS buffer, and then suspended in FACS buffer containing 10 μg/mL propidium iodide (PI) (Sigma) and assayed by a flow cytometer (FACS Calibur, Becton Dickinson). The assay data were analyzed by CELLQuest software (Becton Dickinson), and the geo-mean of FITC fluorescent intensity was calculated for the PI-negative population of viable cells.

[2] = target: T2, C-terminal V5 tagged HS6ST2_N-long …; test: flow cytometry on HS6ST2_N-long_ctV5_CHO cells
Method: as §2
Binding activity of the anti-HS6ST2 antibodies prepared in Example 2 to HS6ST2_N-long was evaluated by flow cytometry. The cells used were HS6ST2_N-long_ctV5_CHO cells and HS6ST2_N-short_{—} ctV5_CHO cells as a positive control, and evaluated in the same manner as in Example 3. The primary antibodies were used at a concentration of 10 μg/mL.

GST_HS6ST2_N = target: T3, GST_HS6ST2_N; test: Western blot of E. coli whole cell lysate, antibody 10 µg/mL
Method: (§3) GST_HS6ST2_N, GST_HS6ST2_mid, GST_HS6ST2_C, GST_HS6ST2_C1 and GST_HS6ST2_C2 were expressed in BL21 (DE3) Competent Cells (Takara Bio), and the whole cell lysates were resolved by SDS-PAGE electrophoresis and then transferred to PVDF membranes (Immobilon-P, Millipore) and Western blotted with the anti-HS6ST2 antibodies. The anti-HS6ST2 antibodies were used at 10 μg/mL, while the secondary antibody (HRP-anti mIgG, GE Healthcare) was used as a 3000-fold dilution, and blots were detected with ECL Western Blotting Detection Reagents (GE Healthcare). As a result, the anti-HS6ST2 antibodies A1, A10, B5, B6 and C8 bound to GST_HS6ST2_C2, A6 bound to GST_HS6ST2_C1, and C10 bound to GST_HS6ST2_N.

[3] = target: T4, C-terminal V5 tagged HS6ST2_N-short …; test: flow cytometry on HS6ST2_N-short_ctV5_CHO cells, antibody 2 µg/mL
Method: as §1, §2

GST_HS6ST2_C2 = target: T5, GST_HS6ST2_C2; test: Western blot of E. coli whole cell lysate, antibody 10 µg/mL
Method: as §3

[4] = target: T1, C-terminal V5 tagged mouse HS6ST2 …; test: flow cytometry on mHS6ST2_ctV5_CHO cells
Method: as §1, §2

| Binder | binding result [1] | binding result [2] | binding result (GST_HS6ST2_N) | binding result [3] | binding result (GST_HS6ST2_C2) | binding result [4] |
| --- | --- | --- | --- | --- | --- | --- |
| anti-HS6ST2 antibody A10 (antibody, mouse IgG1, V domains shown, also called clone A10) VH: EVQLQQSGAELVKPGASVKLSCTASGFNIKDTYMHWVKQRPEQGLEWIGRIDPANGNTKFDPKFQGKASITADTSSNTAYLQLSSLTSEDTAVYYCATNLLRAMDYWGQGTSVTVSS VL: DIVMSQSPSSLTVSVGEKVTMSCKSSQSLLYSSNQKNYLAWCQQIPGQSPKLLIYWASTRESGVPDRFAGSGSGTDFTLTISSVKAEDLAVYYCLQYFTYPFTFGSGTKLEIK | – | binds | – | binds | binds | no binding (tested: 2 µg/mL) |
| anti-HS6ST2 antibody B6 (antibody, mouse IgG1, V domains shown, also called clone B6) VH: EVQLQQSGAELVRSGASVKLSCTASGFNIKDYYMHWVKQRPEQGLEWIGWIDPDNGDTEYAPKFQGKATMTADTSSNTAYLQLSSLTSEDTAVYYCNAGNGNYWFAYWGQGTLVTVSA VL: DVVMTQTPLSLPVSLGDQASISCRSSQSLVHSNGNTYLHWNLQKPGQSPKLLIYKVSNRFSGVPDRFSGSGSGTDFTLKISRVEAEDLGVYFCSQTTLVPYTFGGGTKLEIK | – | binds | – | binds | binds | no binding (tested: 2 µg/mL) |

More lines, now with the values ahead:

| binding result [1] | binding result [2] | binding result (GST_HS6ST2_N) | binding result [3] | binding result (GST_HS6ST2_C2) | binding result [4] | Binder |
| --- | --- | --- | --- | --- | --- | --- |
| binds | binds | binds | binds | – | – | anti-HS6ST2 antibody C10 (antibody, mouse IgG1, V domains shown, also called clone C10) VH: QVQLHQPGSVLVRPGASVKLSCKASGYTFTDSWMHWAKQRPGQGLEWIGEIRPNSGKTNYNEKFKGKATLTVDTSSSTAYVDLRSLTSEDSAVYYCVRTYMSHFDYWGQGTTLTVSS VL: DIVMTQAAFSNPVTLGTSASISCRSSKSLLHSNGITYLYWYLQKPGQSPQLLIYQMSNLAPGVPDRVSSSGSGSDFTLRISRVEAEDVGVYYCAQNLELPFTFGSGTRLEIK |
| – | binds | – | binds | binds | no binding (tested: 2 µg/mL) | anti-HS6ST2 antibody B5 (antibody, mouse IgG1, V domains shown, also called clone B5; B5-biotin) VH: EVKLVESGGGLVKSGGSLKLSCVVSGFTFSRYAMSWVRQTPEKRLEWVASIVSGDKTYYPDSVKGRFTISRDNARNILYLQMSSLRSEDTAMYYCTRELGYFDVWGAGTTVTVSS VL: DVVMTQTPLSLPVSLGDQASISCRSSQSLVHSNGNTYLHWYLQKPGQSPKLLIYKVSNRFSGVPDRFSGSGSGTDFTLKISRVEAEDLGVYFCSQSIHVPPLTFGAGTKLELK |
